In US20150104459A1:
Changes are numbered by the printed parent chain.

B1: 3252_C13 (antibody, V domains shown)
VH: QVQLQESGPGLVKPSETLSLTCTVSGASISSDYWSWIRLPPGKGLEWIGYIYNRGSTKYTPSLKSRVTISLDTAENQFSLRLRSVTAADTAIYYCARHVGGHTYGIDYWGQGTLVTVSS
VL: DIQMTQSPSSLSASVGDRVTITCRASQSISNYLNWYQHKPGEAPKLLNYAASSLQSGVPSRFSASGSGTDFTLTISSLQPEDFATYYCQQSYNTPITFGQGTRLEIK
B2: 3362_B11 (antibody, V domains shown)
VH: QVQLQASGPGLVKPSETLSLTCTVSGDSITSGAYYWTWIRQHPGKGLEWIGYIYYSGNTYYNPSLKSRVTISLDTSKNQFSLKVNSVTAADTAVYYCARAASTSVLGYGMDVWGQGTTVTVSS
VL: B1 VL with N31R, H38Q, K39E, E42K, N48V, A64G, N93S, I96L
B3: 3255_J06 (antibody, V domains shown)
VH: B1 VH with I92V
VL: B1 VL with T74S, S77G, Q100P
B4: 3420_I23 (antibody, V domains shown)
VH: QVQLQESGPGLVKPSETLSVTCKVSGDSISSYSWSWIRQPPGKGLEWVGYLYYSGSTKYNPSLKSRTTISVDTSTNQLSLKLSFVTAADTAVYFCARTGSESTTGYGMDVWGQGTTVTVSS
VL: B1 VL with N31T, H38Q, E42K, N48I, Q55H, A64G, T72A, N93S, T94P
B5: 3260_D19 (antibody, V domains shown)
VH: DMQLVESGGGLVPPGGSLRLSCAASGFSVSDNYINWVRQAPGKGLDWVSVFYSADRTSYADSVKGRFTVSSHDSKNTVYLQMNSLRAEDTAVYYCARVQKSYYGMDVWGQGTTVTVSS
VL: GIQMTQSPSSLSASVGDRVTITCRASQSISRYLNWYLQKPGKAPKLLISGASSLQSGVPSRFSGTGSGTEFTLTISSLQPEDFATYYCQQTFSIPLFGQGTKVEIK
B6: 3242_P05 (antibody, V domains shown)
VH: B5 VH
VL: B5 VL
B7: 3245_O19 (antibody, V domains shown)
VH: EVQLVESGGGLVQPGGSLRLSCTASGLSVSSTYMNWVRQAPGKGLEWVSVFYSETRTYYADSVKGRFTVSRHNSNNTLYLQMNSLRVEDTAVYYCARVQRLSYGMDVWGQGTTVTVSS
VL: DIQMTQSPSSLSASVGDRVTITCRASQSISTYLNWYQKRPGKAPKLLVYGASTLQSGVPSRFSGSGSGTDFTLTIASLQPEDSATYYCQQTYSIPLFGQGTRLEIK
B8: 3244_H04 (antibody, V domains shown)
VH: B7 VH with V87A
VL: B7 VL with T53S, T85V
B9: 3259_J21 (antibody, V domains shown)
VH: QVQLQESGPRVVRPSETLSLTCTVSGGSISSYNWIWIRQPPGKGLEWIGHIYDYGRTFYNSSLQSRPTISVDASKNQLSLRLTSVTASDTAVYYCARPLGILHYYAMDLWGQGTTVTVSS
VL: DIQMTQSPLSVSVSVGDRVTIACRASQSIDKFLNWYQQKPGKAPKLLIYGASNLHSGAPSRFSASGSGTDFTLTITNIQTEDFATYLCQQSFSVPAFGGGTKVEIK
B10: 3248_P18 (antibody, V domains shown)
VH: QVQLQESGPGLVKPSETLSLTCTVSGGSISAYHWSWIRQPPGKGLEWIGHIFDSGSTYYNPSLKSRVTISLDASKNQLSLRLTSVTASDTAIYYCARPLGSRYYYGMDVWGQGTTVTVSS
VL: DIQMTQSPSSLSASVGDRVTITCRASQSISRYLNWYQQKPGKAPKLLIYGASTLQNGAPSRFSGSGSGTDFTLTISSLQPEDSATYLCQQSYSVPAFGGGTKVEVK
B11: 3136_G05 (antibody, V domains shown)
VH: QVQLQESGPGLVKPSETLSLTCSVSGGSISSDFWSWIRQPPGKGLEWIGYVYNRGSTKYSPSLKSRVTISADMSKNQFSLNMSSVTAADTAVYYCAKNGRSSTSWGIDVWGKGTTVTVSS
VL: DIQMTQSPSSLSASVGDRLTITCRASQSISTYLHWYQQKPGKAPKLLIYAASSLQSGVPSRFSGSRSGTDFTLTISSLQPDDFATYYCQQSYSPPLTFGPGTKVDMK
B12: 3244_I10 (antibody, V domains shown)
VH: QVQLQESGPGLLKPSDTLALTCTVSGGSITSDYWSWIRQPPGRGLDWIGFFYNGGSTKYNPSLKSRVTISADTSKNQLSLKLTSVTAADTGVYYCARHDAKFSGSYYVASWGQGTRVTVSS
VL: DIQMTQSPSSLSASVGDRVTISCRASQSISTYLNWYQQQPGKAPKVLIFGATNLQSGVPSRFSGSGSGTDFTLTISSLQPEDFATYYCQQSYNTPLIFGQGTKLEIK
B13: 3243_J07 (antibody, V domains shown)
VH: B12 VH with A100V
VL: B12 VL with F49S
B14: 3253_P10 (antibody, V domains shown)
VH: B12 VH
VL: B12 VL with F49S, N53D
B15: 3139_P23 (antibody, V domains shown)
VH: QVQLQESGPRLVKPSESLSLTCTVSGGSISNSFWGWIRQPPGEGLEWIGYVYNSGNTKYNPSLKSRVTISRDTSKSQLYMKLRSVTAADTAVYYCARHDDASHGYSISWGHGTLVTVSS
VL: DIQMTQSPSSLSASVGDRVTITCRASQTISTYLNWYQQKSGKAPKLLIYAASGLQSGVPSRFSGSGSGTDFTLTISSLQPEDFATYFCQQSYNTPLTFGQGTKVEIK
B16: 3241_G23 (antibody, V domains shown)
VH: QVQLQQSGPGLVKPSQTLSLTCTVSGGPVSGGGYSWNWIRQRPGQGLEWVGFMFHSGSPRYNPTLKSRITISVDTSKNLVSLKLSSVTAADTAVYFCARVGQMDKYYAMDVWGQGTTVTVSS
VL: DIQMTQSPSSLSSSVGDRVTITCRASQSIGAYVNWYQQKAGKAPQVLIFGASNLQSGVPSRFSGSGSGTDFTLTISSLQPEDFATYFCQQTYSTPITFGQGTRLEIK

Target: M2 protein of influenza A/Hong Kong/483/97 (H5N1) (influenza A virus A/Hong Kong/483/97 (H5N1))
Further: test concentration or dose not given here.

Binder	FACS M2-HK MFI [MFI]
B1	449
B2	218
B3	442
B4	112
B5	846
B6	596
B7	919
B8	963
B9	1670
B10	967
B11	109
B12	434
B13	131
B14	43
B15	110
B16	1700
